Measured values reported in patent US10918717 (GREEN CROSS, dated 2021).

Molecular target: epidermal growth factor receptor (EGFR) (Homo sapiens (Human), UniProt P00533 25-645, limits assumed)
Test: potency 1 binding assay (ELISA); RSM sample #15 (10 mg/ml antibody, 55 mM Na-acetate, pH 6.0, 150 mM NaCl) after storage at 60 C for 1 day, relative to control
Description: (11) Potency 1 (Binding assay): ELISA reader (Spectra Max 190, Molecular Devices) was used for potency 1 analysis.
The prepared samples were subjected to thermal tests, under the storage condition of: (i) 37° C. for two weeks; or (ii) 60° C. for one day.

EC50% as compared to a control group: 114 to 121%
B1: anti-EGFR antibody GC1118A (antibody, V domains shown)
VH: EVQLVESGGGVVQPGGSLRLSCAASGFTFSDYDMSWIRQAPGKGLEWVSGILGGSERSYYRDSVKGRFTISRDNSRKTLYLQMNSLRAEDTAVYYCARHGSPGYTLYAWDYWGQGTTVTVSS
VL: DIVMTQTPLSLPVTPGEPASISCRSNQDLTHSNGNTYLEWYLQKPGQSPRLLIYKVSNRFSGVPDRFSGSGAGTDFTLRISRVEAEDVGVYYCMQGTHWPWTFGQGTKVDIKR
notes: These may hold only the part of the antibody that was crystallised
